Test results from US12534540B2, “CYP1A1-targeted monoclonal antibody with reactivity across vertebrate taxa” (Clemson University Research Foundation, priority 2023, dated 2026).
Like-named read-outs stand apart in the source and are kept apart here.

Assays:
[1] = test system: zebrafish CYP1A peptide used for immunizations
Text: Primary hybridoma supernatants were then screened by ELISA against unconjugated peptide for a minimal signal of three-fold optical density readings above wells probed with an irrelevant antibody (mAb 3F9 against major vault protein), then cloned by limiting dilution for further testing.

CYP1A [2] = assay: Tissue immunohistochemistry, Gulf killifish liver; conditions: crude oil-exposed adult gulf killifish vs genetically resistant population; FIG. 3 panels E and F
Procedure: (§1) Grossly dissected archived tissues (fixed and stored at 4° C. in 70% ethanol) were processed and embedded in ParaPlast Extra. Newly embedded tissues were then sectioned and affixed to charged slides for immunohistochemistry. Mouse liver tissues used for this study were from previous studies wherein mice were exposed to 1 mg/kg PCB-126 prior to tissue fixation. Archived rainbow trout livers (and microsomes stored at −80° C. from beta-naphthoflavone ([…])-treated animals from a previous study (Rice et al. 1998 Mar. environ. Res. 46:87-91) were used for immunohistochemistry and immunoblotting. Archived liver tissue from Gulf killifish collected from sites affected by the Deepwater Horizon spill (DHOS) were analyzed for CYP1A alongside livers from a lab-held colony of CYP1A-recalcitrant Gulf killifish, which is used as a molecular control (naturally acquired CYP1A knockdown) (Oziolor et al. 2016 Aquat. Toxicol. 175:222-231). Finally, previously analyzed embryonic chicken livers exposed to airborne volatiles from DHOS oil were included for additional species comparison.
(§2) Zebrafish (strain AB) exposed to PCB-126 (Ulra Scientific) were also used for this study. Zebrafish were housed at the former Clemson Institute of Environmental Toxicology, Pendleton SC and maintained under Clemson University IACUC approved methods. […]

CYP1A [3] = assay: Tissue immunohistochemistry, rainbow trout liver; conditions: rainbow trout treated with 3-NF; FIG. 3 panels G and H
Procedure: as §1, §2

[4] = molecular target: core vertebrate CYP1A sequence IRDITSLI (SEQ ID NO:35) (Homo sapiens, UniProt P04798); assay: ELISA against conserved core CYP1A peptide; type: binding; conditions: FIG. 1 panel B
CYP1A [5] = molecular target: T1, CYP1A (Mus musculus, UniProt P00184)
T1 sequence (P00184 1-524): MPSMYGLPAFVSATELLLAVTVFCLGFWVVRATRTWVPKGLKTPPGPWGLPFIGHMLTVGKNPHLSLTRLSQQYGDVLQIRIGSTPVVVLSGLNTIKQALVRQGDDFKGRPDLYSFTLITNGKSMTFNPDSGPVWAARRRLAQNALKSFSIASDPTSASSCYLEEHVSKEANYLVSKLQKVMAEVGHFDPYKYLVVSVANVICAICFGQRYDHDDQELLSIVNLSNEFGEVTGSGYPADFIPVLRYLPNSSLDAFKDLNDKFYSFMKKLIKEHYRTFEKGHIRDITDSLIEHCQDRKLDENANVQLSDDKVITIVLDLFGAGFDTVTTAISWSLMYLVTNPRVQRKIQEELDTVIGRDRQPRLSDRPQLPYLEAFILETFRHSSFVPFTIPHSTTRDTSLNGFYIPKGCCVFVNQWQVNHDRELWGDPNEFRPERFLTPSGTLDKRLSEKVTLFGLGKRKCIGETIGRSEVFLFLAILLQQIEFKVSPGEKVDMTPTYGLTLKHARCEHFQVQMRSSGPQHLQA
Procedure: as §1
(§3) Zebrafish (strain AB) exposed to PCB-126 (Ulra Scientific) were also used for this study. Zebrafish were housed at the former Clemson Institute of Environmental Toxicology, Pendleton SC and maintained under Clemson University IACUC approved methods. Two juvenile male and two juvenile female zebrafish (40 dpf) were exposed for 48 h to either 10 μM PCB-126 or 0.10% DMSO in 1 L glass bottles containing maintenance water from the recirculating system and supplied with gentle aeration. Following exposure, the 4 fish per treatment were euthanized on ice with buffered Tricaine®, their abdominal cavities opened, and placed in 10% aqueous buffered zinc formalin (Z-Fix, Anatech, Ltd., Battle Creek, MI, USA) for 2 days, and the fixative replaced with 70% ethanol and stored at 4° C. Prior to processing, zebrafish were decalcified in 0.35 M EDTA, pH 7.8 at room temperature (RT) for 6 days, then processed for microtomy as above. Fish and chicken tissue IHC was performed using a horse-anti-mouse IgG VectaLabs ABC-Elite kit (PK-6102), while mouse tissue IHC was performed using the mouse-on-mouse (M.O.M.) anti-mouse IgG VectaLabs ABC-Ultra kit (BMK-2202)
(§4) Whole zebrafish tissues were sectioned at 7-9 μm and mouse, trout, killifish, and chicken tissues were sectioned at 4-5 μm on a Microm 325 rotary microtome. […] Additional screening assays included isotype controls.

CYP1A [6] = test system: CYP1A
Procedure: as §1, §3, §4

[7] = test system: induced CYP1A1 across vertebrate taxa; type: binding
Procedure: Screening mAbs against cell line lysates: […] This medium also supports the growth of frog XLK-WG cells (ATCC, Manassas, VA, USA). Other cells and tissues used for testing and screening are outlined in Table 2. Arochlor 1254-induced and non-induced rat liver S9 fractions were thawed immediately upon receipt from the supplier and prepared for SDS-PAGE-immunoblotting by boiling for 7 min in reducing sample buffer (Thermo Fisher J61337.AD) containing 50 μM PMSF. Commercially sourced HEK cell lysates over-expressing recombinant human CYP1A1 (Origene, Rockville, MD, USA) were prepared similarly. […]-1, and HEPA1C1C7 cells were grown to near confluence in 6-well plates ([…], Corning). Plates seeded with ZFL cells and PLHC-1 cells were sealed with parafilm and kept in sealed containers to avoid external CO2. Cells were treated for 48 h with 10 μM PCB-126 (CAS 57465-28-8, Ultra Scientific) dissolved in DMSO or 0.01% DMSO as a carrier control. XLK-WG cells were grown to near confluence in sealed T-75 flasks, then treated for 12 h with 50 nM of the AHR ligand 6-Formylindolo [3,2-b] carbazole (FICZ) (CAS 172922-91-7, Tocris Biosciences, Bristol, UK) in DMSO or 0.01% DMSO, and again for an additional 12 h with the same. […] Overlying supernatants were removed and transferred to clean tubes and the protein content quantified. […]

Sequence of zebrafish CYP1A peptide used for immunizations (as listed by the source): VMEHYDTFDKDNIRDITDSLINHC

B1: mAb CRC4: zebrafish CYP1A-targeted mouse monoclonal antibody; VH SEQ ID NO:17, VL SEQ ID NO:20, CDRs SEQ ID NOs:28-33 (antibody, V domains shown)
VH: QVTLKESGPGILQPSQTLSLTCSFSGFSLSTSGMGVNWIRKPSGKGLEWLAHIFWDDDKRYNPSLKSRLTISKDTSRNQVFLMITSVDTADTATYYCASLAMDYWGQGTSVTVSS
VL: DIVMTQGASSVTVTPGESVSISCRSSKSLLHSNGRTFLYWFLQRPGQSPQLLIYRMSNLASGVPDRVSGSGSGTAFTLRISRVEAEDVGVYYCMQHLEYPFTFGGGTRLELK
- ELISA reactivity against zebrafish CYP1A peptide (selection criteria) [1]: meeting selection criteria
- CYP1A detection in liver by IHC (CYP1A [2]): easily detected in adult gulf killifish but not in individuals from a genetically resistant population
- CYP1A staining intensity in liver by IHC (CYP1A [3]): most intense staining
- recognition of core vertebrate CYP1A peptide by ELISA [4]: recognized this peptide sequence
- CYP1A detection in liver by IHC (CYP1A [5]): easily detected in PCB-126-exposed mouse livers but not unexposed controls
- CYP1A detection in liver by IHC (CYP1A [6]): easily detected
- CYP1A staining intensity in liver by IHC (CYP1A [6]): most intense staining
- staining after antigen retrieval (CYP1A [6]): more favorable staining
- staining intensity of chicken tissues compared with mAb C10-7 (CYP1A [6]): same intensity as seen using mAb C10-7
- recognition of treatment-induced CYP1A protein by immunoblotting [7]: recognized by mAb CRC4 across all vertebrate taxa examined
